{"source": "paper PMC6158747", "system": "CytR DNA-binding domain", "assay": "fluorescence anisotropy", "settings": "Stopped-flow kinetics: 50 mM sodium phosphate, 30 mM NaCl, 1 mM EDTA, pH 6.0, 278 K, 300 nM Alexa-532 udp half-site, equilibrium isotherms at 293 K (buffer not …)"}
{"substance": "PurR binding site (PurFO)", "values": [{"measurement": "K half", "setting": "293 K, first of two overlapping titration profiles (K1/2,1)", "value": 0.4, "unit": "µM"}]}
{"substance": "random DNA (Poly-AC DNA)", "values": [{"measurement": "K half", "setting": "293 K, similar affinity to udp half-site", "value": 10, "unit": "µM"}]}
{"substance": "udp half-site (Udp-Half)", "values": [{"measurement": "K half", "value": 10, "unit": "µM"}]}
